# Legend:
# [1] = biological target: T1, IL-17A (Homo sapiens, UniProt Q16552); test: IL-17A inhibition cell assay (IL-6 production in NHDF, 50 ng/ml IL-17A); type: cell-based; conditions: NHDF cells in presence of IL-17A
# T1 construct: purchased R&D Systems
# [2] = system: F9 murine teratocarcinoma; test: Quantitative biodistribution of 125I-labeled protein in tumor-bearing mice; type: in vivo; conditions: i.v., 24 h
# [3] = biological target: T1, IL-17A; test: Acute inflammation model: human IL-17A induced KC production in mice; type: in vivo, mouse; conditions: C57BL/6 mice, co-injected s.c. with 3 μg human IL-17A (17 μg 2C1, 16 μg wt), 2 hours
# Procedure: Human IL-17A is able to bind and stimulate the mouse IL-17 receptor, leading to an elevation and subsequent secretion of mouse KC (CXCL1) chemokine (Allan B. et al. (2007) WO2007/070750 of Eli Lilly, US). The observed KC levels 2 hours after s.c. IL-17A injection (3 μg) were between […] in the serum, compared to around […] KC basal levels.
# The blood samples were centrifuged for 10 min at 9500×g and the serum was stored at −20° until ELISA analysis was performed. KC levels in serum were determined using the commercially available Quantikine mouse CLCL1/KC kit (R&D Systems).
# After 20-60 minutes, 3 μg/mouse of human IL-17A (R&D Systems) was injected s.c. and 2 hours after IL-17A injection, blood samples were taken from the vena saphena with the capillary Microvette CB 300 (Sarstedt). The blood samples were centrifuged for 10 min at 9500×g and the serum was stored at −20° until ELISA analysis was performed. KC levels in serum were determined using the commercially available Quantikine mouse CLCL1/KC kit (R&D Systems).
# [4] = system: Normal Human Dermal Fibroblasts (NHDF); test: XTT viability of NHDF cells; type: cell-based; conditions: polypeptides at 750 nM, IL-17 receptor 10 nM, 24 hours
# Procedure: IL-17A induces the production of IL-6 in fibroblasts in a dose-dependent manner (Yao et al. (1995) Immunity, 3, p. 811-821). […] Cell culture supernatants were taken after 24 h of stimulation and assayed for IL-6 with ELISA. […] Only viable and metabolic active cells are capable of reducing the tetrazolium salt XTT to orange-colored compounds of formazan (Scudiero, et al. (1988), Cancer Res. 48, p. 4827-4833).
# 400 μl of a cell suspension containing about 1×10^4 Normal Human Dermal Fibroblasts (PromoCell, NHDF-c, C12300) were distributed per well (24 well plate, Nunc or TPP) and cultured for 24 hours at 37° C. (medium: Fibroblast Growth Medium C-23010, PromoCell). […] After 24 hours incubation at 37° C. the supernatant was aspirated and the IL-6 concentration was determined by ELISA according to the manufacturer's instructions (IL-6 ELISA kit, R&D Systems). Immediately after the aspiration of the supernatant the XTT-containing medium was added (Cell Proliferation Kit II, Roche) and cell viability was determined according to the manufacturer's instructions.
# [5] = Humira Drug Approval Package; cited from earlier work
# T1 sequence (Q16552 20-155 limits assumed): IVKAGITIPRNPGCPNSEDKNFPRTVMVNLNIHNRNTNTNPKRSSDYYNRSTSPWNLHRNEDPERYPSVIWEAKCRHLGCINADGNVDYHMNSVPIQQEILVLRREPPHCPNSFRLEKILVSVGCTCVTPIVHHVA
substance,measurement,setting,value
"Fyn SH3 wt: wild type SH3 domain of Fyn kinase, SEQ ID NO: 1 (SEQ ID NO: 339 in Example 5)",inhibition of IL-6 production,[1],no inhibition of IL-6 production
same,accumulation in the tumor,[2],no enrichment
same,KC levels in mouse serum,[3],as high as in the group receiving IL-17A only
IL-17A receptor-Fc chimera: commercially available human IL-17A receptor Fc chimera (R&D Systems),cell viability (XTT assay),[4],all cells were viable
adalimumab,half-life of other human antibodies in mice,[5],102 to 193 h
